Substitutions are numbered along the chain they refer to. In names and notes the source's numbering stands. Values belong to the binder of their own block, whether it stands above or below them.
Target: T1, human MSR1 extracellular domain expressed with a N-terminal nonahistidine tag (His9-hMSR1); R&D Systems, Cat … (human, UniProt P21757 77-451)
T1 construct: extracellular domain; Bought reagent; also called His-hMSR1; 9xHis-hMSR1
T1 sequence: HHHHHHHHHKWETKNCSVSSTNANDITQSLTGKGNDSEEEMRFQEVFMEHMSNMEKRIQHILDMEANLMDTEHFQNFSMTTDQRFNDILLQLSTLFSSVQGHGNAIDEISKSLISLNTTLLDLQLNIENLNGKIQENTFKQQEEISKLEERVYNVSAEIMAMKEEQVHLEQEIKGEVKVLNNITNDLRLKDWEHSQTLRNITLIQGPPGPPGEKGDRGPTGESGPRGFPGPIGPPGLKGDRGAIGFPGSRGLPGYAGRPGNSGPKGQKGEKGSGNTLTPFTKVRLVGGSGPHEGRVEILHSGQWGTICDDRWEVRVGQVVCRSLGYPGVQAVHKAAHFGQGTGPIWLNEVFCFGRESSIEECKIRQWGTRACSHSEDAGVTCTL
Experiment: SPR Biacore T200, 25 C, antibody captured by anti-human Fc, His9-hMSR1 injected;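 note: running buffer HBS-ET pH 7.4, rates from sensorgrams fitted to a 1:1 model including mass transport limitation, KD and half-life derived from the kinetic constants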
Description: All binding studies were performed in 10 mM HEPES, 300 mM NaCl, 3 mM EDTA, and 0.05% v/v Surfactant Tween-20, pH 7.4 (HBS-ET) running buffer at 25° C.
The association rate (kₐ) and dissociation rate (kd) were determined by fitting the real-time binding sensorgrams to a 1:1 binding model with mass transport limitation using Scrubber 2.0c curve-fitting software. Binding dissociation equilibrium constant (KD) and dissociative half-life (t½) were calculated from the kinetic rates as:

Kd: 0.0649 nM
koff: 2.7e-05 s⁻¹
kon: 416000 M⁻¹ s⁻¹
t½: 427 min
B3: H1H27766P-N297Q-LP1 (antibody, human IgG1, V domains shown)
VH: EVQLVESGGGLVQPGGSLRLSCAASGFTFSSFAMSWVRQAPGKELEWVSSISGRGGSTYYADSVRGRFTISRDNSKITLYLQMNSLRAEDTAVYYCAKDIVFRYTSSAYWYFDLWGRGTLVTVSS
VL: not shown
modifications: LXR agonist linker-payload LP1 clicked to azido-PEG3-amine on Q295 and Q297 (EU) of the heavy chain constant region
notes: antibody-drug conjugate; human IgG1 Fc with N297Q (EU); also called H1H27766P2-LP1

Kd: 4.57 nM
koff: 0.000595 s⁻¹
kon: 130000 M⁻¹ s⁻¹
t½: 19.4 min
B6: H1H27759P-N297Q-LP1 (antibody, human IgG1, V domains shown)
VH: EVQLVESGGGFVQPGGSLRLSCAASGFTFSSYAMSWVRQAPGKGLEWVSAISGTGSNTYYADSVKGRFTISRDNSKNTLYLQMNSLRAEDTAVYYCAKDRVTTVTYYFDYWGQGTLVTVSS
VL: not shown
modifications: LXR agonist linker-payload LP1 clicked to azido-PEG3-amine on Q295 and Q297 (EU) of the heavy chain constant region
notes: antibody-drug conjugate; human IgG1 Fc with N297Q (EU)

Kd: 1.66 nM
t½: 30.2 min
B7: H1H27760P-N297Q (antibody, human IgG1, V domains shown)
VH: EVQLVESGGGLVQPGRSLRLSCAASGFTFDAYAMHWVRQAPGKGLEWVSGISWNSGSIGYADSVKGRFTISRDNAKNSLYLQMNSLREEDTALYYCAKDKILELYYYGMDVWGQGTTVTVSS
VL: not shown
notes: human IgG1 Fc with N297Q (EU); also called H1H27760P2-N297Q

Kd: 1.67 nM
koff: 0.000434 s⁻¹
kon: 259000 M⁻¹ s⁻¹
t½: 26.6 min
B8: H1H27760P-N297Q-LP1 (antibody, human IgG1, V domains shown)
VH: B7 VH
VL: not shown
modifications: LXR agonist linker-payload LP1 clicked to azido-PEG3-amine on Q295 and Q297 (EU) of the heavy chain constant region
notes: as for B6

Kd: 0.609 nM
koff: 0.000362 s⁻¹
kon: 595000 M⁻¹ s⁻¹
t½: 31.9 min
B11: H1H27761P-N297Q (antibody, human IgG1, V domains shown)
VH: EVQLVESGGDLVQPGGSLRLSCSASGFTFNIYAMSWVRQAPGKGLEWVSGISGSGGSTYYADSVKGRFTISRDNSKNTLYFQMNSLRVEDTAVYYCAKKISSSSYYYYAMDVWGQGTTVTVSS
VL: not shown
notes: human IgG1 Fc with N297Q (EU); also called H1H27761P2-N297Q

Kd: 2.02 nM
koff: 0.000511 s⁻¹
kon: 253000 M⁻¹ s⁻¹
t½: 22.6 min
B12: H1H27761P-N297Q-LP1 (antibody, human IgG1, V domains shown)
VH: B11 VH
VL: not shown
modifications: LXR agonist linker-payload LP1 clicked to azido-PEG3-amine on Q295 and Q297 (EU) of the heavy chain constant region
notes: as for B6

Kd: 1.29 nM
koff: 0.000623 s⁻¹
kon: 483000 M⁻¹ s⁻¹
t½: 18.5 min
B18: H1H27762P-N297Q-LP1 (antibody, human IgG1, V domains shown)
VH: QVQLVQSGAEVKKPGSSVKVSCKASGGTFSRYDISWVRQAPGQGLEWMGGIIPIFGTSNYAQKFQGRVTITTDESTSTVYMELSSLRSEDTAVYYCARGGRYGWFDPWGQGTLVTVSS
VL: not shown
modifications: LXR agonist linker-payload LP1 clicked to azido-PEG3-amine on Q295 and Q297 (EU) of the heavy chain constant region
notes: antibody-drug conjugate; human IgG1 Fc with N297Q (EU); also called H1H27762P2-LP1

Kd: 13.4 nM
koff: 0.00185 s⁻¹
kon: 139000 M⁻¹ s⁻¹
t½: 6.2 min
B19: H1xH29283P2 (antibody, V domains shown)
VH: B18 VH with A9T, D33T, I34F, S58T, A97T
VL: not shown
notes: the prefix H1xH is not explained; captured by anti-human Fc

Kd: 93 nM
koff: 0.00763 s⁻¹
kon: 82000 M⁻¹ s⁻¹
t½: 1.5 min
B22: H1xH29273P2 (antibody, V domains shown)
VH: QVQLVESGGGVVQSGRSLRLSCAAAGFTFSNYGMHWVRQAPGKGLEWVALMSFDGSDKYYADSVKGRFTISRDNSKNTLYLQMNSLRAEDTALYYCAKGYDFWSGYWDYWGQGTLVTVSS
VL: not shown
notes: as for B19

Kd: 43.7 nM
koff: 0.00362 s⁻¹
kon: 82800 M⁻¹ s⁻¹
t½: 3.2 min
B25: H1xH29282P2 (antibody, V domains shown)
VH: EVQLVESGGGLVQPGGSLRLSCAASGFTFSTYAMSWVRQAPGKGLEWVSTISGRSDITYFADSVKGRFTVSRDNSKTTLYLQMNSLRAEDTAVYYCATDDDLPLDYWGQGTLVTVSS
VL: not shown
notes: as for B19

More lines, now with the values behind:

B1: H1H27739P-N297Q (antibody, human IgG1, V domains shown)
VH: EVQLVESGGGLVQPGGSLRLSCTASGFTFSSYAMSWVRQAPGKGLEWVSAISGTGSSTYFTDSVKGRFAISRDNSKNTLYLQMNSLRAEDTAVYYCAKDGEWLSTVTLFDYWGQGTLVTVSS
VL: EIVMTQSPATLSVSPGERATLSCRASQSVSSNLAWYQQKPGQAPRLLIYGASTRATGIPARFSGSGSGTDFTLTISSLQSEDFALYYCQQYFIWPPHPTFGPGTKVDIKR
notes: human IgG1 Fc with N297Q (EU)
Kd: 4.68 nM
koff: 0.000555 s⁻¹
kon: 119000 M⁻¹ s⁻¹
t½: 20.8 min

B2: H1H27739P-N297Q-LP1 (antibody, human IgG1, V domains shown)
VH: B1 VH
VL: B1 VL
modifications: LXR agonist linker-payload LP1 clicked to azido-PEG3-amine on Q295 and Q297 (EU) of the heavy chain constant region
notes: antibody-drug conjugate; human IgG1 Fc with N297Q (EU); also called H1H27739P-LP1
Kd: 8.14 nM
koff: 0.000722 s⁻¹
kon: 88800 M⁻¹ s⁻¹
t½: 16 min

B4: H1H27749P-N297Q-LP1 (antibody, human IgG1, V domains shown)
VH: QVQLQESGPGLVKPSETLSLTCTVSDGSISSYYWSWIRQPPGRGLEWIGFIYYSGSTSYNPSLKSRVTISVDTSMSQFSLKLRSVTAADTAVYYCARGSPFDYWGPGTLVTVSS
VL: EIVLTQSPGTLSLSPGERATLSCRASQSVSSSYLAWYQQRPGQAPSLLISGASRRATGIPDRFSGSGSGTDFTLTIRRLEPEDFAMYYCQQYGSSPPTFGGGTKVEIKR
modifications: LXR agonist linker-payload LP1 clicked to azido-PEG3-amine on Q295 and Q297 (EU) of the heavy chain constant region
notes: antibody-drug conjugate; human IgG1 Fc with N297Q (EU); also called H1H27749P-LP1
kon: 140000 M⁻¹ s⁻¹

B5: H1H27759P-N297Q (antibody, human IgG1, V domains shown)
VH: B6 VH
VL: not shown
notes: human IgG1 Fc with N297Q (EU); also called H1H27759P2-N297Q
Kd: 4.23 nM
koff: 0.000435 s⁻¹
kon: 103000 M⁻¹ s⁻¹
t½: 26.6 min

B9: H1H27751P-N297Q (antibody, human IgG1, V domains shown)
VH: EVQLVESGGGLVQPGGSLRLSCAASGFTFSNYAMHWVRQAPGKGLEYVSAISSNGGSTYYADSVKGRITISRDNSKNTLYLQMGSLRAEDMAVYYCARGRPYYYYFGMDVWGQGTTVTVSS
VL: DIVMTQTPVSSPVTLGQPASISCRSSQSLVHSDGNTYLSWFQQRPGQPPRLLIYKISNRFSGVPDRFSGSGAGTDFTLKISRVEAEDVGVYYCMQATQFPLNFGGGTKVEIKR
notes: human IgG1 Fc with N297Q (EU)
Kd: 0.833 nM
koff: 0.000175 s⁻¹
kon: 210000 M⁻¹ s⁻¹
t½: 66.1 min

B10: H1H27751P-N297Q-LP1 (antibody, human IgG1, V domains shown)
VH: B9 VH
VL: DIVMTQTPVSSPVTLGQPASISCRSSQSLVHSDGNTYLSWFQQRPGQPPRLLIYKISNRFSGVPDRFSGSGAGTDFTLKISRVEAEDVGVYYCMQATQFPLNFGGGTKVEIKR
modifications: LXR agonist linker-payload LP1 clicked to azido-PEG3-amine on Q295 and Q297 (EU) of the heavy chain constant region
notes: as for B6
Kd: 0.664 nM
koff: 0.000152 s⁻¹
kon: 229000 M⁻¹ s⁻¹
t½: 76.1 min

B13: H1H27756P-N297Q (antibody, human IgG1, V domains shown)
VH: QVQLVESGGGVVQPGRSLRLSCAASGFTFSNYDMHWVRQAPGKGLEWMAVISYDGINKYYADSVKGRFTISRDNSKNTLYLQMNSLRAEDTAVYYCAKGTYSWYFDLWGRGTLVTVSS
VL: not shown
notes: human IgG1 Fc with N297Q (EU)
Kd: 1.65 nM
t½: 97.4 min

B14: H1H27756P-N297Q-LP1 (antibody, human IgG1, V domains shown)
VH: B13 VH
VL: not shown
modifications: LXR agonist linker-payload LP1 clicked to azido-PEG3-amine on Q295 and Q297 (EU) of the heavy chain constant region
notes: antibody-drug conjugate; human IgG1 Fc with N297Q (EU); also called H1H27756P-LP1
Kd: 1.76 nM
koff: 0.00011 s⁻¹
kon: 62700 M⁻¹ s⁻¹
t½: 105 min

B15: H1H27729P-N297Q (antibody, human IgG1, V domains shown)
VH: QVQLVESGGGLVKPGGSLRLSCAASGFIFSDYYMSWIRQAPGKGLEWVSYISSSGTTIYGDSVKGRFTMSRDNAKNSLYLQMNSLRAEDTAVYYCARNYALFDYWGQGTLVTVSS
VL: DIQMTQSPSSLSASVGDRVTITCQASQDISKYLNWYQQKPGKAPKLLIYYTSNLETGVPSRFSGSGSGTDFTFTISSLQPEDIATYYCHQSDYLPFTFGPGTKVDIKR
notes: human IgG1 Fc with N297Q (EU)
Kd: 8.67 nM
koff: 0.000906 s⁻¹
kon: 105000 M⁻¹ s⁻¹
t½: 12.8 min

B16: H1H27729P-N297Q-LP1 (antibody, human IgG1, V domains shown)
VH: B15 VH
VL: B15 VL
modifications: LXR agonist linker-payload LP1 clicked to azido-PEG3-amine on Q295 and Q297 (EU) of the heavy chain constant region
notes: antibody-drug conjugate; human IgG1 Fc with N297Q (EU); also called H1H27729P-LP1
Kd: 13.1 nM
koff: 0.000718 s⁻¹
kon: 54700 M⁻¹ s⁻¹
t½: 16.1 min

B17: H1H27762P-N297Q (antibody, human IgG1, V domains shown)
VH: B18 VH
VL: not shown
notes: human IgG1 Fc with N297Q (EU); also called H1H27762P2-N297Q
Kd: 1.38 nM
koff: 0.00056 s⁻¹
kon: 405000 M⁻¹ s⁻¹
t½: 20.6 min

B20: H1H27734P-N297Q (antibody, human IgG1, V domains shown)
VH: EVQLVESRGGLVQPGGSLRLSCAASGFTFSSYAMSWVRQAPGKGLEWVSAISGSGGSTFYADSVKGRFTISRDNSKNTVYLQMNSLRAEDTAVYYCAKALVLRFLEWLGDYWGQGTLVTVSS
VL: DIQMTQSPSTLSASVGDRVTITCRASQSISSWLAWFQQKPGKAPKLLIYKASSLESGVPSRFSGSGSGTEFTLTISSLQPDDFATYYCQQYKSYWTFGQGTKVEIKR
notes: human IgG1 Fc with N297Q (EU)
Kd: 7.72 nM
koff: 0.000596 s⁻¹
kon: 77200 M⁻¹ s⁻¹
t½: 19.4 min

B21: H1H27734P-N297Q-LP1 (antibody, human IgG1, V domains shown)
VH: B20 VH
VL: B20 VL
modifications: LXR agonist linker-payload LP1 clicked to azido-PEG3-amine on Q295 and Q297 (EU) of the heavy chain constant region
notes: antibody-drug conjugate; human IgG1 Fc with N297Q (EU); also called H1H27734P-LP1
Kd: 6.49 nM
koff: 0.000449 s⁻¹
kon: 69300 M⁻¹ s⁻¹
t½: 25.7 min

B23: H1H27731P-N297Q (antibody, V domains shown)
VH: QLQLQESGPGLVKPSETLSLTCTVSGGSISRISYYWGWIRQPPGKGLEWIGSIYDSGSTYYNPSLKSRVTISIDTSKNQFSLKLSSVTAADTAVYYCVRYSSSSAFAFDYWGQGTLVTVSS
VL: DIQMTQSPSSVSASVGDRVTITCRASQGISSWLAWYQQKPGKAPKLLIYAASSLQSGVPSRFSGSGSGTDFTLTISSLQPEDFATYYCQQANSFPFTFGPGTKVDIKR
notes: human IgG1 Fc with N297Q (EU)
Kd: ≤ 0.0855 nM
koff: ≤ 1e-05 s⁻¹
kon: 117000 M⁻¹ s⁻¹
t½: 1160 min

B24: H1H27747P-N297Q-LP1 (antibody, human IgG1, V domains shown)
VH: QVQLVESGGAVVQPGRSLRLSCAASGFTFSYYGMHWVRQAPGKGLEWVAVISYDGSKKYYADSVKGRFTISRDNSKNTLYLQMNSLRAEDTAVYYCAKDLTVDFYYGMDVWGQGTTVTVSS
VL: B23 VL with A51T, V58A, Y87F, F96Y, P100Q, V104L, D105E
modifications: LXR agonist linker-payload LP1 clicked to azido-PEG3-amine on Q295 and Q297 (EU) of the heavy chain constant region
notes: antibody-drug conjugate; human IgG1 Fc with N297Q (EU); also called H1H27747P-LP1
Kd: 1.49 nM
koff: 0.000203 s⁻¹
kon: 136000 M⁻¹ s⁻¹
t½: 56.9 min
